15 sequences from a protein production outcome set (Wang et al. 2014) can be followed below.

This data set can be described thus: label from the status in PepcDB records.
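Also: failed if final PepcDB status was selected cloned or expressed and not failed if soluble or beyond.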

For “MIQCEECLCWQHSVCMGLLEESIPEQYICYICRDPPGQRWSAKYRYDKEWLNNGRMCGLSFFKENYSHLNAKKIVSTHHLLADVYGVTEVLHGLQLKIGILKNKHHPDLHLWACSGKRKDQDQIIAGVEKKIAQDTVNREEKKYVQNHKEPPRLPLKMEGTYITSEHSYQKPQSFGQDCKSLADPGSSDDDDVSSLEEEQEFHMRSKNSLQYSAKEHGMPEKNPAEGNTVFVYNDKKGTEDPGDSHLQWQLNLLTHIENVQNEVTSRMDLIEKEVDVLESWLDFTGELEPPDPLARLPQLKRHIKQLLIDMGKVQQIATLCSV”, the protein production result was “not failed”. The result for “MIQLVIRLGLLALLIFWTLYLIRPFVTILVWALVLAVAFNPIFLVLAKILGGRAKLAAGLLTAINLAIVIGPAAWLGLGAVDGIRDFAGELAAGDLVIPSPPAAIKTWPLIGTPLYEFWDQASTNLRSVVQRIAPYLKPFAGTLLGIAGDAGVGTIKFLLSVVVAGCLFPYGPQLVAAGRSFLSRIVPEQSEHFLDLAGATIRAVAQGVIGIAVVQALLAGIGFKLAGIPIAGLLALLVLLLSIVQIGGAIIMLPVMIWIWTDKDVTVAVLLTLFLGIVSILDNILKPLVMGRGLTTPALVILIGVIGGTLGHGIVGLFIGPIVLSVAWELTVAWIRTDRASAASQATIDR” reads “failed”.

For the sequence “MIQMDGGDRLRVTLLDRMSTVESSRSCLTLEAILMADKNRTSPQILSPPPSRSQSNRSLVEVMQREHRHSRDKTAWKSLREKLRLKRNGSVWISSNSIPSLDTPIPNRDNVSHQLGFLLSNSGNVTEEASSVEGRIRLGAVLAEERALSAREEETPAEREVEPARMSLMELLEENEGQMSFVSVDGEAEEEVAAVTAAEISCCVCMVRSKGAAFIPCGHTFCRLCSRELWVQRGNCPLCNTTILEVLDLF”, the protein production entry is reported as “failed”. The entry for “MIQMVKRVHIFDWHKEHARKIEEFAGWEMPIWYSSIKEEHLAVRNAVGIFDVSHMGEIVFRGKDALKFLQYVTTNDISKPPAISGTYTLVLNERGAIKDETLVFNMGNNEYLMICDSDAFEKLYAWFTYLKRTIEQFTKLDLEIELKTYDIAMFAVQGPKARDLAKDLFGIDINEMWWFQARWVELDGIKMLLSRSGYTGENGFEVYIEDANPYHPDESKRGEPEKALHVWERILEEGKKYGIKPCGLGARDTLRLEAGYTLYGNETKELQLLSTDIDEVTPLQANLEFAIYWDKDFIGKDALLKQKERGVGRKLVHFKMIDKGIPREGYKVYANGEMIGEVTSGTLSPLLNVGIGIAFVKEEYAKPGIEIEVEIRGQRKKAVTVTPPFYDPKKYGLFRET” is “not failed”. The entry for “MIQVPASFDIQGHRGCRGLLPENTIAAFTKALLLGVTTLEFDLVISKDNRVVVSHDTFFHHEITMMVDGEDVTEANEKNFNLYAMNYADIKEIDVGMKTHPRFKSQKKVPAVKPLFRELIETAEKLSAKIQYNGEIKSTVEGDNIDHPNIALFCDLVVAEIKKAHITDRFTLQSFDVRALEYMHSQYPDIKLSYLVETKGTLKKQLEKLSFTPAVYSPDVTLVSKKDIDAAHKLGMRVIPWTVNTKEEIETLISLGVDGIITDYPDLFFEK” is “not failed”; for “MIREFFQKYFIDPIKYNTGYNPVNTLVYAIILGIATLLVYKVLKRLKIEINNAFFRALIPYMIFGAFTRALTDAGVFPRTYLTVSPGIYFLVFVIAFSALLVSHKFAKDWRGVFLWFGWGLVMVDLAAMSANISKINFDFAVLKYFIPFLILAELVVFLLSKKVSLVRENSYLFYAHFYDATTTFVGVDFMGYWEQHVLPRLLIGLTGTAAVMYVLKFIILFAAVWLLKELEKEGEEKELLDFIKMVIFILGFAPGTRNLLRMLMGV” it is “failed”; for “MIRFYMSLSVVKHTILYLCFIFLLLYLKKRYPDNVIIGFFLKIRWCFINSMLHLHFIAIWIAGYRNRCSNSSWNFGYFGCCVETQAKVGRTATNLLLTES” it is “failed”. Consider “MIRIKTPSEIEKMKKAGKAVAVALREVRKVIVPGKTAWDVETLVLEIFKKLRVKPAFKGYGGYKYATCVSVNEEVVHGLPLKEKVFKEGDIVSVDVGAVYQGLYGDAAVTYIVGETDERGKELVRVTREVLEKAIKMIKPGIRLGDVSHCIQETVESVGFNVIRDYVGHGVGRELHEDPQIPNYGTPGTGVVLRKGMTLAIEPMVSEGDWRVVVKEDGWTAVTVDGSRCAHFEHTILITENGAEILTKEG”, for which the protein production entry was “not failed”.

For “MIRKYRYGAPFDTEALTEKIETAEEAFPYGEISQKEGFAFTYIMDEDDIVYGLGESNRGINKRGYCYISNCTDDPIHTEDKRSLYGAHNFIIVSGKTTFGLFFDYPSKLTFDIGYTRMDTLKVSCENADLDIYVIEGENAYDIVKQFRRVIGRSYIPPKFAFGFGQSRWGYTTKEDFRAVAKGYRENHIPIDMIYMDIDYMQDFKDFTVNEKNFPDFPEFVKEMKDQELRLIPIIDAGVKVEKGYEVYEEGVKNNYFCKREDGSDFVAAVWPGDTHFPDMLNPEARKWFGDKYRFLIDQGIEGFWNDMNEPAIFYSSEGLAEAKEFAGEFAKDTEGKIHPWAMQAKMKDIVNSPEDYKRFYHNVNGKKIRHDKVHNLFGYNMTRAAGEAFERIDPEKRFLMFSRSSYIGMHRYGGIWMGDNKSWWSHILLNLKMLPSLNMCGFMYTGADLGGFGDDTTRDLLLRFLALGVFTPLMRDHAAEGTREQECYQFENIEDFRSVINARYRLVPYLYSEYMKAALNDDMYFKPLGFVYPDDKMAIRVEDQLMLGNEIMIAPVYEQNARGRYVYLPEEMKFIKFMPDGSISEEVLEKGVHYVDVALNEVPLFIRSGKCIPVAEAAECVKDIDTENMQLIGYEGSSYTLYEDDGIHKDYDKKENYRVLTK”, the protein production entry is on record as “not failed”. “MIRLAAIDVDGTLTDRDRLISTKAIESIRSAEKKGLTVSLLSGNVIPVVYALKIFLGINGPVFGENGGIMFDNDGSIKKFFSNEGTNKFLEEMSKRTSMRSILTNRWREASTGFDIDPEDVDYVRKEAESRGFVIFYSGYSWHLMNRGEDKAFAVNKLKEMYSLEYDEILVIGDSNNDMPMFQLPVRKACPANATDNIKAVSDFVSDYSYGEEIGQIFKHFELM”: the protein production entry is given as “not failed”. Consider “MIRMTKVDIISGFLGAGKTTFIKQLINQAFAGEKLVLIENEFGEIGIDGGFLKNAGIEITEMNSGCICCTLVGDFSKALKKVLEEYQPDRVIIEPSGVGKLSDIMKAIEDVKKDADIAIDGRITVVDGKKAKLYLKNFGEFFKDQVEHASAIVISRTQAMSDDKIEECVHMLRDENKEAAIISTPWAQLGKEAIIHALEKGSELAGLLEETHGQECCHHEHHHHEHEACGHEHHHHHADEIFTSWGKETAHKYTKEELDFMLKALSETEAYGTVLRSKGIIQMSDGSWRQFDLVPQEYEVREGQPDYTGRLCVIGTDLKEEELMTLFHLKLEHHHHHH”, for which the protein production entry is “failed”. The result for “MIRNSGIHHEKLSQLLQSGHSLWVLYLDIAKFHEVEFRQGYRACAQILDLVLTEMKHTLHNYMHLFHTILLDYQGGDDFLFYFAPNENTPWSIAKLIPEFVPTLESRINHRIQRLVNETITLHSGLVECKPQPGRSVDYLLYGALKEAFLLNKSEPDPLYFSHREEVNRLLEEPQTYLSSAFQPILDVVSGEFFGFEALTRLKPPSSFAGIADLFPFAEKIGQLYPVETICRRTAILNSSQILRPKELLFLNVEPQVLTDPEFSSGQTRRLLETQGLTPSDVVLEITERSAIANYGTFREALEHYRKQGYLIALDDVGAGYSSLQSIAELHPDFLKIDRCLIQGIHLDPIKWALFETFVTFSRRIGCRILAEGVETQEEMRTVVQLGADYVQGYFIAKPSFTRPELSDPVTQIVQSQQRLSFNSEKTVQHLLEPLPLVTPQTTVNAVQNYFEEHAKIWLIGVADKGELLGVVQRDNLYSALATPFGVSLYSQRPVTSLMNNKQLLIEDTTPIEVASSLAMARPDAHLYDGIVVVQQQKPIGMIRVASLIKAMSDTQLQIAQGASPLTGLPGNSAIEQEIKRRLNSGNAFGMIYADLNQFKAFNDTYGFQYGDSIIKLLGKILMQDSLKADDLAFVGHVGGDDFIILTTQNVTKTLGETILLSFQEQLSAMQGAQDLSLALAGLIIYPHTAWTPATLSERIAAVKREAKKAHCNYFLLRE” reads “failed”. The entry for “MIRNTSNGWGSVSRWLHWILALTIIGMIGFGWWMNHIPARPDRFFYRSIHADIGYVILLLTVLRLVWRVVNPTPALPADSQPWQRLAARISHGALYLAVIAVIVLGWAHSGAHAPDYSDFFGLFHVPQFTSPDRAAANAYEDRHILFAYVLLALIAVHVVAALWHHFIRRDRVVTRMVADEAG” is “failed”; for “MIRTAKRTELIEVAQGRRPADIVIKGGTVVNVYSGEFLRQNVAIYHDAIAYVGEKEVAVDEHTIVIDAEGMYVSPGFIEPHAHPWVLYNPVSMTAKVLPLGTTTTVNDNLFFYLHFGVDGFRQLIEDLRVLPGHFFWLVRLVSQADFPGERDWFDPRHIQELLAMDEVVGTAEVTRWPLLYQGDPFLLETIEAAKRAGKVVDGHTAGCSYEKLNSIAASGVSACHEAITAEEALHRLRLGMWTTLRHSSLRPDFPEIIRLITEKKVSTQRITMTTDGPHPGFIEREGFVDGLVRKAVELGVPPMTALQMATINAATYLQLDDEIGGIAPGKLADILLLPDLVTFQPSLVIAKGRIVARDGKLLAPLPEIDWKRYVSKKPFLFAKERLDDERLYRYPHSESDQPVPVMYFKSNVITERKDVALPSVDGYADLSHHPGLLYAALIDRNGQWVAKAILERFALDIDGMASTYNTTTELLVIGKQPEAMAAAAKRVLEMGGGIVVIDGGRPVVEIPLPFTGMMTTDDSFDTAVRFHDELLSALQERGFPFHDILYTLLFLTCDFLPGLRLIPYGLYDVKRNEILLPAEKIGEKVVK” it is “failed”; for “MISAWLLVLISITYISLLFLIAWAGDRHPGLYKRRLARTHIYGLSLAVYFTSWTFYGAVGRATQEGLAFLPIYLGPLLVFIFFAPLLRRIIYISKRNNSTSIADFIASRYGKSQVLAAMVAIFALIGSVPYIALQLKAIALGFNVLSGTGDSYQELSTAAWNDSAWYITLALAVFTVLFGTRHLESTEHHRGMIQAVAFESLIKLIAFVAVGLFVGYGLYDGFGDLFTRVREADLMGTLTTESLEAPAFLTQTLVAMLAIICLPRQFHVMVVENTDHRDFEVARWAMPIYLIIASAFVIPIAAAGLLSTHLAGSDPDIVILQLPIMAGEHWLAVLAFLGGGSAAAAMVIVCSVAIATMVSNEIIMPGLLKFFRPGMNRRTDLSFLLLTIRRVAIFVVLLTAYGFYRMAGEDYSLTAFGLLSFAAAAQFGPALVGGILWRQGNFTGAAWGLGLGFLMWCYTLLLPALVSTGWVADTLIEHGLFGWNWTRPTALFGSELDQISHGILWSLGVNTGAYILLSLITRQRIREKIQIAAFFHDAQPKAENAQHQSWQGEILTSDLQALTDRFMGEERSESIFRNYERRNAIRLYPQRPASTHLMKYIERQLASVIGASTARVVLESTLTGRDMQIEDVVSIVDEASQAMTFSRELLQSAIENISLGVSVVNHQQQLVVWNHRYLELFNYPKGFVRVGRPVEDLMRYNLTNANLSARRIDDIVENRCNSMREGKPMSYERQRPDGTVVRVDGSPIPGGGYVTTFQDITAMRRTEQALKETNIYLEQRVRERTQELQVINEQMLKAKSVAEQANQSKTRFLASASHDLLQPLNAARLFTSALSGKVNEGETRDLVDHIDSSLGAAEEIISTLLDISKLDAGALEPDIGVFPVNELLRHLATEFSAIAKDQGLELHVVPSTAWVRSDAKLLRRVVQNFLSNAIRYTASGKILMGCRRLKGYLRIEVWDTGPGMSDDQLNHIFEEFRRFQHGRDKKGLGLGLAIVDRISGMLNHPVTVHSIQGKGSVFGITVPVAPADQSRLDAQKSGSSSRRVSNLGGLHVLCIDNDAAILQGMVALLGNWQCDVTAAESLDDALTKLDGRQPDIILADYQLDDNRNGLDAMDSIREHLGNDIPGILITGYMAPEVRDDAGNRGYQVLYKPVKPAALRALVNKLLKQKRS” it is “failed”.
